The test deals with T1, human glycyl-tRNA synthetase, wild type (GlyRS^WT) (human, UniProt P41250 55-739).
T1 construct: also called WT GlyRS; GARS
T1 sequence: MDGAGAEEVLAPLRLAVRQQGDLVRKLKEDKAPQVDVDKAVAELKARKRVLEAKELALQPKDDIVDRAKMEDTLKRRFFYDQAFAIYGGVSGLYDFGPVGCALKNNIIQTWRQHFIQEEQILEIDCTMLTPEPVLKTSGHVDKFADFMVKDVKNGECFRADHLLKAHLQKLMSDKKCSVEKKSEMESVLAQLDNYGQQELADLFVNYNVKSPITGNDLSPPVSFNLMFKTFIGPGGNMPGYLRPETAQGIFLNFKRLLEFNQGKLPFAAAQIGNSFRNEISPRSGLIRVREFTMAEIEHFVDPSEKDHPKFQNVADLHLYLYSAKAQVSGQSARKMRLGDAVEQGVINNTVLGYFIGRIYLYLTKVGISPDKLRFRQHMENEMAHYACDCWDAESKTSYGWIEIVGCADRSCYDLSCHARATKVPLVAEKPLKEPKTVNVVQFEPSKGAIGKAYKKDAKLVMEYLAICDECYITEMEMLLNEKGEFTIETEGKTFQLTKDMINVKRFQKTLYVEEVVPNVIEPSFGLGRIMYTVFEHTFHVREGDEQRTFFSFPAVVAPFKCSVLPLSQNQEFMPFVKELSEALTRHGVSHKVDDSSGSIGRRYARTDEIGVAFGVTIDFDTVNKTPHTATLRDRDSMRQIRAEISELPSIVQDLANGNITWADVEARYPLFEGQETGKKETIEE
The test can be described thus: in vitro IP: Fc-fused Nrp1 domain constructs on Protein A resin, recombinant GlyRS added, blot GlyRS.

B1: b2 (on Fc) (Fc fusion)
chain: KITDYPCSGMLGMVSGLISDSQITSSNQGDRNWMPENIRLVTSRSGWALPPAPHSYINEWLQIDLGEEKIVRGIIIQGGKHRENKVFMRKFKIGYSNNGSDWKMIMDDSKRKAKSFEGNNNYDTPELRTFPALSTRFIRIYPERATHGGLGLRMELLGCEVEAPTAGPTTPNGNLVDECDDDQANCHSGTGDDFQLTGGTTVLATEKPTVIDSTIQSEF
notes: also called Nrp1 b2 domain (res. Lys425-Phe643) fused to human IgG Fc; not shown: C-terminal human IgG Fc domain (and any V5-His tag from the vector); The CD33 signal peptide is cleaved on secretion
Turning to B1, the binding result is “no binding”.

B2: c-Fc (drawn as the c box on Fc) (Fc fusion)
chain: TAGPTTPNGNLVDECDDDQANCHSGTGDDFQLTGGTTVLATEKPTVIDSTIQSEFPTYGFNCEFGWGSHKTFCHWEHDNHVQLKWSVLTSKTGPIQDHTGDGNFIYSQADENQKGKVARLVSPVVYSQNSAHCMTFWYHMSGSHVGTLRVKLRYQKPEEYDQLVWMAIGHQGDHWKEGRVLLHKSLKLYQVIFEGEIGKGNLGGIAVDDISINNHISQEDCAKPADLDKKNPEIKIDETGSTPGYEGEGEGD
notes: also called Nrp1 c domain (res. Thr589-Asp840) fused to human IgG Fc; not shown: C-terminal human IgG Fc domain (and any V5-His tag from the vector); The CD33 signal peptide is cleaved on secretion
As to B2, the binding result was “no binding”.

(Values after US20180313836A1 (Scripps Research, published 2018).)
